One experiment deals with BN-GP T cells. Nature of the experiment: IFNβ anti-proliferative activity in IL-2 stimulated cultures of BN-GP T cells. The conditions noted are these: for Biological activity of IFNβ in expression supernatants: transient transfection of HEK293 cells. It is filed as cell-based, rat. The protocol:
FIG. 1. The IFNβ-NAg his-tagged fusion protein was biologically active and was purified on nickel resins. (A) To assess whether IFNβ-NAg induced class I MHC expression, thymocytes (5×10^6/ml in complete RPMI) were cultured with or without IFNβ-NAg for 2 days and then were stained with B5 (anti-MHC-I), OX18 (anti-MHC-I), R73 (anti-TCRβ), or OX81 (anti-IL4; isotype control) and were analyzed by flow cytometry. (B) To assess IFNβ-mediated anti-proliferative activity, supernatants from two independently derived IFNβ-NAg expression systems as well as supernatants from several control expression systems were added at designated titrations (x-axis) to IL-2 stimulated cultures of BN-GP T cells. (C) To assess the specificity of anti-proliferative activity, baculovirus supernatants containing IFNβ-NAg were added at designated titrations to cultures of rat (R1T, BN-GP, RsL.11T, RsL.11, or Conal.8D9) or mouse (CTLL) T cells. Proliferative assays (B & C) were pulsed with [^3H]thymidine on the second day of a 3-day culture. (D) Shown is a representative SDS-PAGE analysis of purified IFNβ-NAg.
(§1) FIG. 2. Structure-function analysis of the cytokine and NAg domains of IFNβ fusion proteins. (A) Expression supernatants containing designated IFNβ fusion proteins (see Table 2) were added to cultures of BN-GP T cells at designated titrations (x-axis). (B) The IFNβ-EK-NAg-6his or IFNβ-EK-6his fusion genes were inserted into the pCEP4 expression vector (Invitrogen). Inserts were verified by DNA sequencing, and the genes were expressed by transient transfection of HEK293 cells. Independently derived expression systems of IFNβ-EK-NAg-6his or IFNβ-EK-6his (3 each) were compared in the BN-GP T cell anti-proliferative assay. (C) Independently purified preparations (2 each) of each IFN-β fusion protein (IFNβ-NAg from HEK293 cells, IFNβ-NAg from baculovirus, and IFN-β from HEK293 cells) were added at designated concentrations to assess anti-proliferative activity. Two independently purified preparations of the same fusion protein were tested to verify the reliability of activity for each type of protein. The x-axis was based on the exponent of the molar concentration. For example, a concentration of 100 nM was represented as Log [10^−7]=Log10) (10^−7M)=−7 and was plotted by the exponent of −7. For these experiments (A-C), BN-GP T cells were cultured in IL-2. (D) The MBP-specific RsL.11 T cell clone and irradiated splenic APC were cultured with designated concentrations of purified IFNβ-NAg or GPMBP in the presence or absence of the OX6 anti-MHC-II mAb. (E) Five preparations of purified IFNβ-NAg and six preparations of purified IFN-β were tested for antigenic activity in cultures of RsL.11 T cells and irradiated splenic APC.
(§2) The RsL.11 MBP-specific clone was a stable, IL-2 dependent line derived from Lewis rats sensitized with rat MBP in CFA (Mannie, M. D., and M. S. Norris. 2001. MHC class-II-restricted antigen presentation by myelin basic protein-specific CD4+ T cells causes prolonged desensitization and outgrowth of CD4-responders. Cell Immunol 212:51-62). The RsL.11T clone was a transformed variant of the RsL.11 clone. […]

The test system of experiment [1] is MBP-specific RsL.11 T cell clone. Nature of the experiment: Antigen-specific proliferation of RsL.11 T cell clone with irradiated splenic APC. It is filed as cell-based, rat. How it is done: as §1, §2

B1: IFNβ-NAg: Fusion protein: rat IFNβ, enterokinase linker (GDDDDKG), encephalitogenic 73-87 peptide of guinea pig MBP, C-terminal 6-histidine tag (protein)
chain: IDYKQLQFRQSTSIRTCQKLLRQLNGRLNLSYRTDFKIPMEVMHPSQMEKSYTAFAIQVMLQNVFLVFRSNFSSTGWNETIVESLLDELHQQTELLEIILKEKQEERLTWVTSTTTLGLKSYYWRVQRYLKDKKYNSYAWMVVRAEVFRNFSIILRLNRNFQNGDDDDKGPQKSQRSQDENPVVHHHHHH
B1: the “Biological activity of IFNβ in expression supernatants” value in the experiment with BN-GP T cells is listed as “Potent activity”. Further, the “cytokine activity relative to HEK293-derived protein” value in the experiment on BN-GP T cells (protein purified from baculovirus expression supernatants) was “less active”. Besides, the “antigenic potency relative to GPMBP” value in experiment [1] (at low concentrations, concentration eliciting half-maximal response) is “more potent than intact guinea pig myelin basic protein”. In addition, in experiment [1] (compared with GPMBP), the peak proliferative response entry is on record as “substantially less than that stimulated by GPMBP”.

B2: IFNβ: Rat interferon beta cytokine with enterokinase linker and 6-histidine sequence, no neuroantigen (protein)
chain: IDYKQLQFRQSTSIRTCQKLLRQLNGRLNLSYRTDFKIPMEVMHPSQMEKSYTAFAIQVMLQNVFLVFRSNFSSTGWNETIVESLLDELHQQTELLEIILKEKQEERLTWVTSTTTLGLKSYYWRVQRYLKDKKYNSYAWMVVRAEVFRNFSIILRLNRNFQNGDDDDKGHHHHHH
For B2, the “Biological activity of IFNβ in expression supernatants” value in the experiment with BN-GP T cells was “Potent activity”. Moreover, the “stimulatory activity (antigen-specific proliferation)” value in experiment [1] (independently purified preparations, RsL.11 T cells and irradiated splenic APC) is given as “devoid of stimulatory activity”.
